Reference: US7026443
Where two headings read alike, the source gives them in different places.

Columns and labels:
[1] = biological target: HLA-A*0201 (human); experiment: competition against 125I-labelled standard peptide on purified HLA-A*0201, gel filtration
[2] = biological target: HLA-B*5401 (human)
[3] = biological target: HLA-B*3501 (human)
[4] = biological target: HLA-B*0702 (human)
[5] = biological target: HLA-B*5101 (human)
[6] = biological target: HLA-B*5301 (human)
[7] = biological target: HLA-A*0301 (human); experiment: competition with 125I-labeled standard probe peptide for purified HLA-A*0301, gel filtration
[8] = biological target: HLA-A*0301 (human); experiment: competition with 125I-labeled standard peptide for purified HLA, gel filtration
[9] = biological target: HLA-A*1101 (human); experiment: as above
[10] = biological target: HLA-A*0201 (human); experiment: competition with 125I-labelled standard peptide for purified HLA, gel filtration
[11] = biological target: HLA-A*1101 (human); experiment: competition with 125I-labeled standard probe peptide for purified HLA-A*1101, gel filtration
[12] = biological target: HLA-A*0301 (human); experiment: competition with a 125I-labelled standard peptide for purified HLA-A*0301, bound and free separated by gel filtration
[13] = biological target: HLA-A*0101 (human)
[14] = biological target: HLA-A*0301 (human)
[15] = biological target: HLA-A*3101 (human); experiment: competition with 125I-labelled standard peptide for purified HLA, gel filtration
[16] = biological target: HLA-A*3301 (human); experiment: as above
[17] = biological target: HLA-A*6801 (human); experiment: as above
[18] = biological target: HLA-A*0301 (human); experiment: as above
[19] = biological target: HLA-A*1101 (human); experiment: as above
[20] = biological target: HLA-A*0301 (human); experiment: competition with 125I-labelled standard probe peptide for purified HLA-A*0301, gel filtration
[21] = biological target: HLA-A*1101 (human); experiment: competition with 125I-labeled standard peptide for purified HLA-A*1101, gel filtration

**Q.** With LLITSNINA (modifications not checked) [HPV16 E1 562 …] as the binder, how does the relative binding ratio (IC50 of standard peptide / IC50 of test peptide) [1] read?
**A.** 0.0022

**Q.** QPFILYAHI (modifications not checked) [HPV18 E1 263 peptide …] was tested. Which binding affinity ratio (IC50 of standard peptide / IC50 of test peptide) [2] did it give?
**A.** 0.0034

**Q.** What about the binding affinity ratio (IC50 of standard peptide / IC50 of test peptide) [3] of the same binder?
**A.** 0.0003

**Q.** What about the binding affinity ratio (IC50 of standard peptide / IC50 of test peptide) [4] of the same binder?
**A.** 0.0002

**Q.** And the binding affinity ratio (IC50 of standard peptide / IC50 of test peptide) [5]?
**A.** 0.21

**Q.** And the binding affinity ratio (IC50 of standard peptide / IC50 of test peptide) [6]?
**A.** 0.0017

**Q.** With QPPKLRSSVA (modifications not checked) [HPV18 E1 315 peptide …] as the binder, how does the binding affinity ratio (IC50 of standard peptide / IC50 of test peptide) [2] read?
**A.** 0.039

**Q.** What about the binding affinity ratio (IC50 of standard peptide / IC50 of test peptide) [3] of the same binder?
**A.** 0.0003

**Q.** And the binding affinity ratio (IC50 of standard peptide / IC50 of test peptide) [5]?
**A.** 0.0002

**Q.** What about the binding affinity ratio (IC50 of standard peptide / IC50 of test peptide) [6] of the same binder?
**A.** 0.0002

**Q.** Which results are given for NVLKTSNAK (modifications not checked) [HPV16 E1 peptide … (position 196, 9 amino acids)]?
**A.** binding affinity ratio (IC50 of the standard peptide / IC50 of the test peptide) [7]: 0.0005; relative binding ratio (IC50 of standard peptide / IC50 of test peptide) [8]: 0.0005; relative binding ratio (IC50 of standard peptide / IC50 of test peptide) [9]: 0.0015

**Q.** How did the binding affinity ratio (IC50 of the standard peptide / IC50 of the test peptide) [7] turn out when NAKAAMLAK (modifications not checked) [HPV16 E1 peptide … (position 202, 9 amino acids)] was run?
**A.** 0.0005

**Q.** And the relative binding ratio (IC50 of standard peptide / IC50 of test peptide) [8]?
**A.** 0.0005

**Q.** What about the relative binding ratio (IC50 of standard peptide / IC50 of test peptide) [9] of the same binder?
**A.** 0.0031

**Q.** IAEGFKTLI (modifications not checked) [HPV18 E1 254 peptide …] was tested. Which binding affinity ratio (IC50 of standard peptide / IC50 of test peptide) [10] did it give?
**A.** 0.0003

**Q.** With GDTPEWIQR (modifications not checked) [HPV45 E1 327 … (SEQ ID NO: 43619)] as the binder, how does the relative binding ratio (IC50 of standard peptide / IC50 of test peptide) [11] read?
**A.** 0.0002

**Q.** Which relative binding ratio (IC50 of standard peptide / IC50 of test peptide) (ratio to standard peptide) [12] does the source give for EGTGCNGWF (modifications not checked) [HPV18 E1 peptide … (position 10, 9 amino acids)] here?
**A.** 0.0008

**Q.** For DCATMCRHY (modifications not checked) [HPV16 E1 peptide … (position 404, 9 amino acids)], which relative binding ratio (IC50 of standard peptide / IC50 of test peptide) (ratio to standard peptide) [13] is on record?
**A.** 0.0011

**Q.** And the relative binding ratio (IC50 of standard peptide / IC50 of test peptide) (ratio to standard peptide) [14]?
**A.** 0.0001

**Q.** LACSWGMVV (modifications not checked) [HPV16 E1 267 …] was tested. Which relative binding ratio (IC50 of standard peptide / IC50 of test peptide) [1] did it give?
**A.** 0.0006

**Q.** CMSCCRSSR (modifications not checked) was tested. Which binding affinity ratio (IC50 of standard peptide / IC50 of test peptide) [15] did it give?
**A.** 0.082

**Q.** And the binding affinity ratio (IC50 of standard peptide / IC50 of test peptide) [16]?
**A.** 0.12

**Q.** And the binding affinity ratio (IC50 of standard peptide / IC50 of test peptide) [17]?
**A.** 0.0011

**Q.** What about the binding affinity ratio (IC50 of standard peptide / IC50 of test peptide) [18] of the same binder?
**A.** 0.0033

**Q.** What about the binding affinity ratio (IC50 of standard peptide / IC50 of test peptide) [19] of the same binder?
**A.** 0.0001

**Q.** How did the binding affinity ratio (IC50 of standard peptide / IC50 of test peptide) (ratio relative to standard peptide) [3] turn out when RPIVQFLRY (modifications not checked) [HPV45 E1 433 peptide …] was run?
**A.** 0.04

**Q.** And the binding affinity ratio (IC50 of standard peptide / IC50 of test peptide) (ratio relative to standard peptide) [4]?
**A.** 0.0033

**Q.** What about the binding affinity ratio (IC50 of standard peptide / IC50 of test peptide) (ratio relative to standard peptide) [6] of the same binder?
**A.** 0.023

**Q.** With EGTGCNGWFY (modifications not checked) [HPV16 E1 peptide … (position 11, 10 amino acids)] as the binder, how does the binding affinity ratio relative to the standard peptide (IC50 standard / IC50 test) [20] read?
**A.** 0.0005

**Q.** How did the binding affinity ratio (IC50 of standard peptide / IC50 of test peptide) [10] turn out when ILLTTNIHPA (modifications not checked) [HPV18 E1 569 peptide …] was run?
**A.** 0.08

**Q.** Which results are given for LIRCINCQK (modifications not checked)?
**A.** binding affinity ratio (IC50 of standard peptide / IC50 of test peptide) [15]: 0.0012; binding affinity ratio (IC50 of standard peptide / IC50 of test peptide) [16]: 0.0041; binding affinity ratio (IC50 of standard peptide / IC50 of test peptide) [17]: 0.0021; binding affinity ratio (IC50 of standard peptide / IC50 of test peptide) [18]: 0.0025; binding affinity ratio (IC50 of standard peptide / IC50 of test peptide) [19]: 0.0009

**Q.** Which relative binding ratio (IC50 of standard peptide / IC50 of test peptide) [21] does the source give for LILALLRYK (modifications not checked) [HPV45 E1 267 peptide … (SEQ ID NO: 43681)] here?
**A.** 0.18

**Q.** With EGTGCNGWF (modifications not checked) [HPV16 E1 peptide … (position 11, 9 amino acids)] as the binder, how does the binding affinity ratio relative to the standard peptide (IC50 standard / IC50 test) [20] read?
**A.** 0.0008

**Q.** ILYAHIQCL (modifications not checked) [HPV18 E1 266 peptide …] was tested. Which binding affinity ratio (IC50 of standard peptide / IC50 of test peptide) ([10]; remark: other sources report otherwise) did it give?
**A.** 0.081

**Q.** How did the relative binding ratio (IC50 of the standard peptide / IC50 of the test peptide) [12] turn out when LSFVCPWCA (modifications not checked) [HPV45 E7 peptide … (position 95, 9 amino acids)] was run?
**A.** 0.0005
